The nature of this data set: soluble fraction after stress (log2 fold change); higher = more stays soluble; pooled small domains, quantitative proteomics. As to conditions: stress: 50 degC. An outline of the steps:
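After stress at 50°C, the amount of each protein still soluble was measured. This was done on pooled custom libraries of small protein domains, using high-throughput quantitative proteomics. The figure given is a base-two log fold change and stands for aggregation propensity, with higher values meaning more protein stays in solution.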
Regarding “HMGLIAPMPGQIRSVAVSVGDVVKKGQTLLTMEAMKMEIRIQALKDGRVTALHAAQGQTVEGEQILIEVE”, the “soluble fraction (log2)” value is -0.000533.
Turning to “HMGLLEMPSERERQVLVLIAEGLSNKEIAARLYLTEGTVKNHAHSLYAKLNVTTRTLAIARARQLGI”, the “soluble fraction (log2)” value is -1.54.
As for “HMGLLLSQLDKDYQRYIDLADSTFRDNQLAVSRGWYNRALGVKAAEKYPKDQIAEIEKKIAERM”, the “soluble fraction (log2)” value is -0.181.
On to “HMGLNEGLNEGQQKVIQHIQENEGIKVKEISLKLNMPIDTVDRHIRVLKNLNLIERRGSRKTGGYFISN”, for which the “soluble fraction (log2)” value was -0.266.
The result for “HMGLNELQVKLNEAMQRLSLKHRTVVVMHDIEGIPHDEIAKIVGVSVGTIRSRLFYARRQLQADLGEY” reads -2.57; that for “HMGLNNVSDILRLDFNSFKKKFDKLPSGYKNSVVEQAALMIKSGELDSIKIKDYIEKSMGIELDI”, -0.27; that for “HMGLQDLFLNSLRKSKTPVTMFLVKGVKLQGVVTWFDNFSVLLRRDGMSQLVYKHSISTIMP”, -0.0722.
“HMGLSARIAQRIHGLRTAQRMSLEALAARSGVSRSMISLIERNEASPTAVVLEKIATGLNVVLAALFDTP”: the “soluble fraction (log2)” value is -1.29.
In the case of “HMGLSNYEFNSISQTVKEKLEQGPLTLKALVDETAHLFAEDKVVSVVQWLIDQRDLAYDDHGLLQWKG” it was -0.418; in that of “HMGLTLREKMGHVLEMLKGREFLPFVSLFTVEEGRIGVVVTFMSILELVKEGILDLVQTESFGPIHVKAR”, -0.326.
Regarding “HMGMAETTARILQLLGLLQSRRGWSGQELAERLGVTTRSVRRDVERLRELGYPVHASAGHGGGYQLGA”, the “soluble fraction (log2)” value was -1.8.
The result for “HMGMGDALRILFNQAMLIEREQYLQAGAYERNENPVNYANGFKAKTLNTRVGALEVAVPQTRDSAFYPSFL” reads -0.114; that for “HMGMLATFVTSAKVPDDVVYAITKEVFENLDEFKKLHPALEGLTRETMLEGLTAPIHPGALKYYKEAGLM”, -0.522; that for “HMGMSQQKQSSTVRIIMQDISDANEGLMKMSQIIDAALAEGISETIVRNAISNLHRGGTIYESQTGTYQW”, -0.359.
Consider “HMGMTDEELNREEERVVAELEAKDEEELTIYNEEDLTFEETLDLPEGSLMRDRENGMIYLKVLDIWMPY”, for which the “soluble fraction (log2)” value was -0.54.
“HMGMTNRIKELRKAKGYRQEDLAAALGVSRQTIIAVENNKYNPTLELAMKLARHLQTTVEELFQL”: the “soluble fraction (log2)” value was -0.758.
With “HMGMVEFEIGERDHSEDVSRKLFEAGLIEDASDFNQYMIEKKMDDHLQTGKYQIPKGATKDEILELIVR”, the “soluble fraction (log2)” value was -0.00544.
Consider “HMGMYAEERHQAIASLARKHGRVSVAELAERFNVTSETIRRDLDSLARRGLLTRVHGGAVPVE”, for which the “soluble fraction (log2)” value worked out at 0.0963.
In the case of “HMGMYFTEMRKNEGLIALNGVAESNKRVSDLMDNLKDSSSFDAADIKAVKSGSGDASSLMDFELLVT” it was 0.113.
The result for “HMGNASQAARRQRIVDAALELLQDRPYDQIQMRDVAEGAGVALGTLYRYFPSKEQLFAHVLVE” reads 0.027; that for “HMGNEMQVPNVAGKTVDEAIEIFNNMGLKVAAENKYAQSDDVKEGDVVKTDPSSGRNVKKGSEITLYISQG”, 0.0976.
Turning to “HMGNEVMYRQDLSEQELLSFIKKYTGQDEVTHIVVGAPKQRDNTPSPVETKITPFVVQLKAQFPDVNVV”, the “soluble fraction (log2)” value worked out at 0.115.
The result for “HMGNFNDMLKYLRVREKMSQAELADKLGVSKSTVGMYELGKREPDFETLEAIADLFNVDMNFLLGK” reads -0.35.
Turning to “HMGNHMSFKMWGEQLQEAFRALETYDTQKAKTILNELVRFPIDSDITKALKGIISNIDDMMA”, the “soluble fraction (log2)” value is -0.535.
Consider “HMGNLPPAVINARIKVSPAGRGVFVGFDKGSTSTEAKYADAIRGYLPNIEFNKDDHESVVTVPFNFR”, for which the “soluble fraction (log2)” value was -0.032.
As to “HMGNTLAYSEFRQKVQEGAVKQVVLSEDRVTGELTNGDRFTANIVRDPELLKMLNDNNVKYDGKPT”, the “soluble fraction (log2)” value was found to be 0.203.
Consider “HMGNVGEAIEALVKGFQEGNQFQTLLGVTGSGKTFTMANVIAALNKPTLIISHNKTLAAQLYLSLIHIS”, for which the “soluble fraction (log2)” value stood at 0.112.
Consider “HMGNYRVIKWGMQGDDVKLMQQMLINRGYVLSATGKYASRTLKAIMAFQEANGLKADGIVGKRTWNKLL”, for which the “soluble fraction (log2)” value was -2.66.
For the sequence “HMGPAYEKIVANGQTFYRYNVKKGEGLMAVSRTFNVSVNDILKYNPSAASGLKDGQELLIPVIDDA”, the “soluble fraction (log2)” value came out at 0.164.
In the case of “HMGPESKLTDAIKDYIYALYENLKGKSKFRNTIIEEVKKLYGVDISRESIRRVVNQKTDAETTENDDDEKA”, the “soluble fraction (log2)” value was at least 0.62.
The result for “HMGPKALLKIPGLQEVDAELLFKEGYKSISAVASADPEMLKAIPGVDEQKVTEWVTGAEQILSQQVNKGA” reads 0.342; that for “HMGPKPVDMSPIPEGQRNQVLHDWMYGRAANHPENWGQIRSDALERGLKSGLKADEIHAITGSVARALGLE”, 0.12.
Consider “HMGPNPLTEREQEILQLARTGEPVARLAKRLFLSPGTVRNHLSSAIGKLGAANRVEAAQFATERGW”, for which the “soluble fraction (log2)” value worked out at 0.0816.
Turning to “HMGPSLDAVREQIRDLIAEEDKSAPYSDLSLVAELEKRGIHISRRTIAKYRGEMGIPNSDQRRYF”, the “soluble fraction (log2)” value turned out to be 0.0495.
For “HMGPSSIVVYVSGAVKTPGVYTLAPGSRVDDAVRAAGGLSERAESAGTNLAAQLSDGEHVHVAAAGE”, the “soluble fraction (log2)” value turned out to be 0.228.
Turning to “HMGPTGGLTPHIAIADKRASEAIEFYKQAFGAVEQVRMPAEDGVRLMHAHLLVNGSSLMMHDDFPEYSGQ”, the “soluble fraction (log2)” value was 0.0526.
Consider “HMGPTLSPAEKRVFEVIPYDAILQDMVIRAAELPPGEVLAALTTLELKGLIKRLPGNLVMRRAR”, for which the “soluble fraction (log2)” value is 0.0188.
Consider “HMGPVALGVTDGATYFSSVTITFRRGTAVLDGEPIASGHTVYKSGAHSLTLTAGGKTRTIAFTMDT”, for which the “soluble fraction (log2)” value was -4.23.
The result for “HMGPVPLASAADMEKFYSHLQQVLDEVDFKDRTGSGHLMARLRRLFQRTVLDQNEINILRGILMAVQGRR” reads -2.85; that for “HMGQGAASAPLRELGVDPVSEKQMVLKDGRFGPYVTDGETNASLRKGDEVETITDERASELLQMRRDAGPS”, -0.195.
As to “HMGQISDDGALKKLASEVLAANPQALADWKAGKQQAVSFLVGQAMKASKGRGDAALLGELIRAALD”, the “soluble fraction (log2)” value stood at 0.0134.
In the case of “HMGQKASEVEKIFVELQQQIIRGDLPPGYRLVESQIAAQFGVSRTPARLAIERLATAGLVAHETNRGATVH” it was -0.42; in that of “HMGQKNEDESLAKFYVHKKGNQYGPYSLIQIREYLKNNSFSLDDLASWDGQSWKKISQIPNLN”, -0.075; in that of “HMGQLTDKQILLFSGKLAYEPTFASKYSKAGESYDDFIIRISGDLTDPKKIKEYSPYLKELGF”, -0.161.
On to “HMGQNYTIVKGDSLWKIAQKQYGDGSQWKKIYDANKDAIESAAKKYGKKSSDSGKWIYPGVSLII”, for which the “soluble fraction (log2)” value turned out to be 0.0704.
The result for “HMGQVEVPDVVGMTQERAITTLTEAKLVAQIQLTPADVAKGLVAAQSPRAGLKIGEGSFVTIEVSTGPVI” reads 0.0948; that for “HMGQVFEGTFNRKANGKNSVTPAEGGEPVFIAERNSLHAMNGDLVKVSLLAKKKHQPREAQVIEILKRSD”, 0.144; that for “HMGQVPPLTRRETEIARLVSRGLSNKEIASTLVISPRTAEGHVEHILDKLGFSSRTQIATWLNEQTRNGK”, -0.0938.
Regarding “HMGRDWKTDLLNLATARGWGDVSYEVTGEGPDHARVYTAVAIVANQKTGTGVGPSKKEAERLAAEQAYRML”, the “soluble fraction (log2)” value was -0.142.
For “HMGRELSDLELSLLRILDDKIPLLIDEAADRLQLPVAQVLSAVTIMEIDGLIRREGMRKYLRTVEVEETK”, the “soluble fraction (log2)” value is -0.499.

The values above are taken from the domain aggregation screens of Martell et al. (2025).
